In US20190202914A1:

Biological target: cynoCTLA-4-his protein (CT4-05227, AcroBio) (cyno) (UniProt G7PL88)
Experiment: SPR, Biacore T200, antibody immobilised, CTLA-4-his injected, 1:1 model

Kd	koff	kon	Binder
0.0591 nM	0.000308 s⁻¹	5.21e+06 M⁻¹ s⁻¹	CL5′-dPTM′ (antibody, human IgG1, V domains shown) VH: EVQLVESGGGLIQPGGSLRLSCAVSGFTVSKNYMSWVRQAPGKGLEWVSVVYSGGSKTYADSVKGRFTISRDNSKNTLYLQMNSLRAEDTAVYYCARAVPHSPSSFDIWGQGTMVTVSS
0.0243 nM	0.00011 s⁻¹	4.55e+06 M⁻¹ s⁻¹	CL5′-eA-dPTM′ (antibody, human IgG1, V domains shown) VH: EVQLVESGGGLIQPGGSLRLSCAVSGFTVSKNYMSWVRQAPGKGLEWVSVVYSGGSKTYADSVKGRFTISRDNSKNTLYLQMNSLRAEDTAVYYCARAVPHSPSSFDIWGQGTMVTVSS
